Assay [1] deals with T1, FLAG-Set1 (full length) (S. cerevisiae, UniProt P38827 1-1080).
T1 sequence (looked up): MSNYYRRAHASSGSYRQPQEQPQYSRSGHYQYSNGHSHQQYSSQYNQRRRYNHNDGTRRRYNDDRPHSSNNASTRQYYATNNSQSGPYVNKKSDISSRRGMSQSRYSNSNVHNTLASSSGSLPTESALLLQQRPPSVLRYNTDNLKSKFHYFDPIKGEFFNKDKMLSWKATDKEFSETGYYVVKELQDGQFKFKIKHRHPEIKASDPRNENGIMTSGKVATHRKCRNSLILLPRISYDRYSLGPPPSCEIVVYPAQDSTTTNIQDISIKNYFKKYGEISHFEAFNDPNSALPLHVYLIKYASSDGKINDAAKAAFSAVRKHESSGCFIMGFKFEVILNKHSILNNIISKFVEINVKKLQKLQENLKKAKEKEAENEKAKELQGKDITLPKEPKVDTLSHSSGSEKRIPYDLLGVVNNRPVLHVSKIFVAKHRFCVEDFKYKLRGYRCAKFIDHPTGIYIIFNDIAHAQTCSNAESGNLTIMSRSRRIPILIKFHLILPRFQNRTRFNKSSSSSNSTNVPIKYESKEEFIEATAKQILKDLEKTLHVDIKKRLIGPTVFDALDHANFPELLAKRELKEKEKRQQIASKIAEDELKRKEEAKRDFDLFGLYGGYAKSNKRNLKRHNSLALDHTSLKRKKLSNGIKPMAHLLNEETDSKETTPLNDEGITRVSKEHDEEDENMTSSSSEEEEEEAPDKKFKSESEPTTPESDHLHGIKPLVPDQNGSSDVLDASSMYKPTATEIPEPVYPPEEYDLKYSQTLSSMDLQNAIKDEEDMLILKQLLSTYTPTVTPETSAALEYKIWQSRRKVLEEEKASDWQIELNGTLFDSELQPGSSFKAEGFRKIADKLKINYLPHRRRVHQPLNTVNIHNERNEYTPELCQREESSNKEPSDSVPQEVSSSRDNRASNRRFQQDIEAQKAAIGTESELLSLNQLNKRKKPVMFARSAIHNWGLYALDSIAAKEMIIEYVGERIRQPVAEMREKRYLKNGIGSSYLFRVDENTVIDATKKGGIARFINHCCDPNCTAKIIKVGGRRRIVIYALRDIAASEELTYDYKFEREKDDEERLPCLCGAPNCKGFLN
Kind of assay: SEC. (In general: SEC sorts molecules by how far they enter the pores of the column.)

A further assay deals with T2, FLAG-Swd2 (purified) (S. cerevisiae, UniProt P36104 1-329).
T2 sequence (looked up): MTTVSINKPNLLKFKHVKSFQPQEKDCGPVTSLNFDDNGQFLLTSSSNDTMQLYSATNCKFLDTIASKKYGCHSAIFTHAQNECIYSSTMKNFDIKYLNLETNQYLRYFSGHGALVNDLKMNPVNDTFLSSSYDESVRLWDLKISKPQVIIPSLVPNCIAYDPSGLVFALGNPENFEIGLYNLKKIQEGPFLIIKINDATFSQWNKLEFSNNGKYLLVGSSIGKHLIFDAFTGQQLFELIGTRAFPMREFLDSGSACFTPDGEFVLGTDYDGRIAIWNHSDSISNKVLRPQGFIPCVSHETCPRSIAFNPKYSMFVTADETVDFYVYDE
Briefly: pull-down.

Assay [2] addresses T3, GST-Set1 fragment, residues 356–568 (S. cerevisiae, UniProt P38827 356-568).
T3 sequence (looked up): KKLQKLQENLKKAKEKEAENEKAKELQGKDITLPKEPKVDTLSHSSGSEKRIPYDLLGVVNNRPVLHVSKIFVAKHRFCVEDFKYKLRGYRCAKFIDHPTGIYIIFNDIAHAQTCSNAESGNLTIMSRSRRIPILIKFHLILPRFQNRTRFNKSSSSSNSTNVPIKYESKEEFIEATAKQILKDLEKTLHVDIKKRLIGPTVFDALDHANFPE
Kind of assay: pull-down.

For assay [3], the target named is T1, FLAG-Set1 (full length). Briefly: affinity co-purification by the FLAG tag.
In another assay the target is T4, FLAG-Spp1 (purified) (S. cerevisiae, UniProt Q03012 1-353).
T4 sequence (looked up): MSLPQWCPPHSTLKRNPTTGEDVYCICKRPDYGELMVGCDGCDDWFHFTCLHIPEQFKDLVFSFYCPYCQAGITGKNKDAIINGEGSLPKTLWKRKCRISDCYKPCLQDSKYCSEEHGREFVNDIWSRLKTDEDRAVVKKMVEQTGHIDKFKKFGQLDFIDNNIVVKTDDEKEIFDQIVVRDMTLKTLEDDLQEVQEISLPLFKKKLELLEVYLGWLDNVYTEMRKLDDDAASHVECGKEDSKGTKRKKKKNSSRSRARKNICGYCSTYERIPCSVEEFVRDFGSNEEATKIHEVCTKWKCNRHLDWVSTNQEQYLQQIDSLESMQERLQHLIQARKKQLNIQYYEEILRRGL
Kind of assay: pull-down.

The target of assay [4] is T1, FLAG-Set1 (full length). Kind of assay: affinity co-purification by the FLAG tag. The source holds these as a separate data set.

B1: Spp1 (natural protein, S. cerevisiae, UniProt Q03012 1-353, looked up)
chain: T4 sequence (looked up)
Take B1: the binding result with FLAG-Set1 (full length) [1] is listed as “binds”.

B2: GST-Set1 fragment, residues 1–229 (domain or fragment, S. cerevisiae, UniProt P38827 1-229, looked up)
chain: MSNYYRRAHASSGSYRQPQEQPQYSRSGHYQYSNGHSHQQYSSQYNQRRRYNHNDGTRRRYNDDRPHSSNNASTRQYYATNNSQSGPYVNKKSDISSRRGMSQSRYSNSNVHNTLASSSGSLPTESALLLQQRPPSVLRYNTDNLKSKFHYFDPIKGEFFNKDKMLSWKATDKEFSETGYYVVKELQDGQFKFKIKHRHPEIKASDPRNENGIMTSGKVATHRKCRNSL
With B2, the binding result with FLAG-Swd2 (purified) is given as “binds”.

B3: Shg1 (natural protein, S. cerevisiae, UniProt P38337 1-142, looked up)
chain: MAYNQEDSKRLSDKYKKEGHFDKLKREILSNPWNNTEENSESFEQALRKRVASTVKEMVNEDEELIFKNRGLTSALIESQLVKDNYLKLGSKMEGDNGDGEKKFDLDVYVRSKLQDPKLLEMIKGQLQETLNSYEEEANGST
As for B3, the binding result with FLAG-Set1 (full length) [1] is “binds”.

B4: FLAG-Shg1 (purified) (natural protein, S. cerevisiae, UniProt P38337 1-142, looked up)
chain: B3 chain
B4: in assay [2], the binding result is “binds”.

B5: Swd2 (natural protein, S. cerevisiae, UniProt P36104 1-329, looked up)
chain: T2 sequence (looked up)
On to B5, for which the binding result in the assay with FLAG-Set1 (full length) [1] is recorded as “binds”.

B6: Swd3 (natural protein, S. cerevisiae, UniProt P38123 1-315, looked up)
chain: MFQFVTPVGTQNGLKATCAKISPDGQFLAITQGLNILIYDINRRTVSQTLVTSHARPFSELCWSPDGQCIATASDDFSVEIIHLSYGLLHTFIGHTAPVISLTFNRKGNLLFTSSMDESIKIWDTLNGSLMKTISAHSEAVVSVDVPMNDSSILSSGSYDGLIRIFDAETGHCLKTLTYDKDWKRENGVVPISQVKFSENARYLLVKSLDGVVKIWDCIGGCVVRTFQVQPLEKGVLHHSCGMDFLNPEDGSTPLVISGYENGDIYCWNSDTKSLLQLLDGSLYHHSSPVMSIHCFGNIMCSLALNGDCCLWRWV
For the molecule B6, the binding result with FLAG-Set1 (full length) [3] is “binds”.

B7: GST-n-SET (Set1 residues 762–937) (domain or fragment, S. cerevisiae, UniProt P38827 762-937, looked up)
chain: MDLQNAIKDEEDMLILKQLLSTYTPTVTPETSAALEYKIWQSRRKVLEEEKASDWQIELNGTLFDSELQPGSSFKAEGFRKIADKLKINYLPHRRRVHQPLNTVNIHNERNEYTPELCQREESSNKEPSDSVPQEVSSSRDNRASNRRFQQDIEAQKAAIGTESELLSLNQLNKRK
On to B7, for which, in the assay with FLAG-Spp1 (purified), the binding result is on record as “binds”.

B8: Swd1 (natural protein, S. cerevisiae, UniProt P39706 1-426, looked up)
chain: MNILLQDPFAVLKEHPEKLTHTIENPLRTECLQFSPCGDYLALGCANGALVIYDMDTFRPICVPGNMLGAHVRPITSIAWSPDGRLLLTSSRDWSIKLWDLSKPSKPLKEIRFDSPIWGCQWLDAKRRLCVATIFEESDAYVIDFSNDPVASLLSKSDEKQLSSTPDHGYVLVCTVHTKHPNIIIVGTSKGWLDFYKFHSLYQTECIHSLKITSSNIKHLIVSQNGERLAINCSDRTIRQYEISIDDENSAVELTLEHKYQDVINKLQWNCILFSNNTAEYLVASTHGSSAHELYIWETTSGTLVRVLEGAEEELIDINWDFYSMSIVSNGFESGNVYVWSVVIPPKWSALAPDFEEVEENVDYLEKEDEFDEVDEAEQQQGLEQEEEIAIDLRTREQYDVRGNNLLVERFTIPTDYTRIIKMQSS
Turning to B8, the binding result with FLAG-Set1 (full length) [4] was “binds”.

These data come from article PMC3615140 (Molecular cell, 2013).
